The results in this text go back to US20180141988A1 (Pieris, published 2018).

Experiment [1] deals with T1, murine GPC3 (6938-GP; R&D systems), biotinylated (murine, UniProt Q8CFZ4 25-558, limits assumed, biotinylated using standard NHS chemistry).
T1 construct: Bought protein; also called mouse GPC3
In words: SPR (Biacore T200), biotinylated GPC3 captured on chip, mutein in flow. The protocol:
(§1) SPR analysis of the binding of the optimized Lcn2 muteins to human and mouse GPC3 was performed at 25° C. on a Biacore T200 instrument (GE Healthcare) using HBS-EP+ (1x; BR-1006-69; GE Healthcare) as running buffer. The Biotin CAPture Kit (GE Healthcare) was used to immobilize biotinylated GPC3 to a chip surface. Human GPC3 (2119-GP; R&D systems) and murine GPC3 (6938-GP; R&D systems) were biotinylated using standard NHS chemistry. Undiluted Biotin CAPture Reagent (streptavidin conjugated with ss-DNA oligo) was captured on a Sensor Chip CAP with the pre-immobilized complementary ss-DNA oligo. Thereafter, biotinylated human or murine GPC3 at 1 μg/ml was applied for 300 s at a flow rate of […].
(§2) Lcn2 muteins were applied in concentrations of 10 nM, 40 nM and 160 nM at a flow rate of 30 μL/min. The dilutions were injected with association times of 180 s and dissociation times of 600 s to obtain ka and kd information. Regeneration of the chip surface was achieved by injecting 6 M Guanidinium-HCl+0.25 M NaOH (120 s) with a flow rate of 10 μL/min. Injection of regeneration solutions was followed by an extra wash step with H₂O and a stabilization period of 120 s.
(§3) The data were double-referenced by subtraction of the corresponding signals measured for the control channel (loaded with Biotin CAPture reagent only) and by subtraction of buffer injections from the binding responses. Association rate constant ka and dissociation rate constant kd for the binding reaction were determined using Biacore T200 Evaluation Software V2.0 for data processing and kinetic fitting. The data were globally fit with 1:1 binding model.

The target in experiment [2] is T2, Human GPC3 (2119-GP; R&D systems), biotinylated (human, UniProt P51654 25-559, biotinylated using standard NHS chemistry).
T2 construct: Bought protein; also called human Glypican-3
Described as above. The protocol:
as §1, §2, §3

For experiment [3], the target named is T3, mouse GPC3 on stably transfected SK-HEP-1 cells (mouse, UniProt Q8CFZ4 25-553).
T3 construct: whole, on cells; also called SK-HEP-1::mouse GPC3; murine GPC3
In words: MSD-based (ECL) cell binding assay on transfected SK-HEP-1 cells. The protocol:
(§4) Binding of optimized lipocalin muteins of SEQ ID NOs: 5-16 to human, cynomolgus and mouse GPC3 compared to SEQ ID NOs: 3 and 4 was tested on SK-HEP-1 cells using an ECL format (FIG. 1). In this experiment, dilution series of lipocalin muteins were incubated on MSD plates coated with human, cynomolgus or mouse GPC3 overexpressing SK-HEP-1 cells.
(§5) SEQ ID NOs: 3, 4, 5, 7, 8, 9, 10, 12, 13, 14, 15 and 16 (using 1000 nM as starting concentration) were serially diluted at a 1:3 ratio down to the picomolar range in PBS/Casein. 20 μl of the dilution series were transferred to the SK-HEP-1-coated plates for 1 hour at room temperature.
(§6) To allow for detection and quantification of bound GPC3 specific lipocalin muteins, the residual supernatants were discarded and 20 μl of a mixture of rabbit anti scaffold antibody (2 μg/ml) and Sulfotag labelled anti rabbit antibody (5 μg/ml) prepared in PBS/casein was added to the wells and incubated for 1 h at RT. After washing, 35 μl surfactant-free reading buffer was added to each well and the ECL intensity of every well was read using a MSD reader.

Experiment [4] addresses T4, cynomolgus GPC3 on stably transfected SK-HEP-1 cells (cynomolgus, UniProt A0A2K5VK50 24-553).
T4 construct: whole, on cells; also called SK-HEP-1::cyno GPC3; SK-HEP-1::cynomolugus GPC3
The description is as above. Here is the method:
as §4, §5, §6

Experiment [5] addresses T5, human GPC3 on stably transfected SK-HEP-1 cells (human, UniProt P51654 25-554).
T5 construct: whole, on cells; also called SK-HEP-1::human GPC3
Described as above. The protocol: as §4, §5, §6

For experiment [6], the target named is T5, human GPC3 on stably transfected …. Briefly: MSD-based (ECL) cell binding assay on immobilized SK-HEP-1 cells transfected with human GPC3; detection with rabbit anti-scaffold antibody and Sulfotag-labelled anti-rabbit antibody. The protocol: as §4, §5, §6

T5 sequence (P51654 25-554 limits assumed): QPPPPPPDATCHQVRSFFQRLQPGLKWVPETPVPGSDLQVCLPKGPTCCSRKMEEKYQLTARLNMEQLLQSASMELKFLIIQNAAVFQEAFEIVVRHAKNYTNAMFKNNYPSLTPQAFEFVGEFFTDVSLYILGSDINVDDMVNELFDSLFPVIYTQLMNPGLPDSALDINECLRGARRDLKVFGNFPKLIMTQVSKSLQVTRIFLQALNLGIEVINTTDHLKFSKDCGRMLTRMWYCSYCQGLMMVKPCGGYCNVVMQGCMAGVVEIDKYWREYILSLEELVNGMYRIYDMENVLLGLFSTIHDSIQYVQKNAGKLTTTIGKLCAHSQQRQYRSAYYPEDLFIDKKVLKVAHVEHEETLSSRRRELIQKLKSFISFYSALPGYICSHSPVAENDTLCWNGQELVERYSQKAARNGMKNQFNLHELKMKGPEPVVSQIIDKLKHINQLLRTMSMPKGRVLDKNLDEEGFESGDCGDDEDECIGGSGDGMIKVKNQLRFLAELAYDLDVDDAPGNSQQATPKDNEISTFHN
T2 sequence (P51654 25-559 limits assumed): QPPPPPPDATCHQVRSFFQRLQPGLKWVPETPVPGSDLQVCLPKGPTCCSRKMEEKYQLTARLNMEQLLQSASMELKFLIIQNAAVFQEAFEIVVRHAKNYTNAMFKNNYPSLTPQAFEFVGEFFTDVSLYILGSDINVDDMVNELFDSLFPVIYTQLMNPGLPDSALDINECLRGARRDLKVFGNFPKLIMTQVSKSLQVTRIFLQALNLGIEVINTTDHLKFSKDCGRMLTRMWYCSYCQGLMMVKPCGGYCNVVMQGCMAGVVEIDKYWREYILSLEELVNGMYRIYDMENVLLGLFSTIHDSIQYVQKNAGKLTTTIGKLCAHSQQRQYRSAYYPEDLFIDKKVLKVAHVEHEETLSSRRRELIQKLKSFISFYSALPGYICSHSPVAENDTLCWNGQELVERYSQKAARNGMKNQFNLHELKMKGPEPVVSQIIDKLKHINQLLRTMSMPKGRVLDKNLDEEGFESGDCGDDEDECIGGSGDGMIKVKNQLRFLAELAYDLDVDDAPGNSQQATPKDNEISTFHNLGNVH
T3 sequence (Q8CFZ4 25-553 limits assumed): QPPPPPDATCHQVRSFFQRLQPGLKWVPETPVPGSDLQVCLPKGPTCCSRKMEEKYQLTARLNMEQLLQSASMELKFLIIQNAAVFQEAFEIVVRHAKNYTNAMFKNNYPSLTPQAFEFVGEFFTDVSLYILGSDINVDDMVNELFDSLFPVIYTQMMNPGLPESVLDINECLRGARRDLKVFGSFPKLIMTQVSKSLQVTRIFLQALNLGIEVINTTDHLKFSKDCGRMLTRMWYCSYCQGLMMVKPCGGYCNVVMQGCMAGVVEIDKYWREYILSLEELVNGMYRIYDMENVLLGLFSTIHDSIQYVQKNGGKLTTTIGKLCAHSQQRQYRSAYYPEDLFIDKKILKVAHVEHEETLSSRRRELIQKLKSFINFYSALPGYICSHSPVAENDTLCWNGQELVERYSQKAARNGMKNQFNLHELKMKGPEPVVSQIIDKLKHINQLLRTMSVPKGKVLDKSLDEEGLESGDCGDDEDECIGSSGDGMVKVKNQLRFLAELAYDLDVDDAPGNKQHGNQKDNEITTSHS
T1 sequence (Q8CFZ4 25-558 limits assumed): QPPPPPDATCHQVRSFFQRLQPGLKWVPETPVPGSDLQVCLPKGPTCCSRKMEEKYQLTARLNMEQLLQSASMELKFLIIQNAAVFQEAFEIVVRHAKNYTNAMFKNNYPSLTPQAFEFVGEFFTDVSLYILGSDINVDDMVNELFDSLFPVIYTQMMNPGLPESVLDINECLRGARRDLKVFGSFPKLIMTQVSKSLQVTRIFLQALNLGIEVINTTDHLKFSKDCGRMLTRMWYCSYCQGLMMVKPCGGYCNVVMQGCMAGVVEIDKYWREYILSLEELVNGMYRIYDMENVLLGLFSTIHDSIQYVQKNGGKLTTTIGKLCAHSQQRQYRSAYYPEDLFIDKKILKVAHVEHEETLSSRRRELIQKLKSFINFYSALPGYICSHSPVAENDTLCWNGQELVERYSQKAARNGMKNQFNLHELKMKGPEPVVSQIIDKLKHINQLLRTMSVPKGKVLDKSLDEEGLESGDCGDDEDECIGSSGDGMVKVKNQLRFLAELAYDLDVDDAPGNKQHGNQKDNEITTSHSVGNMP

B1: lipocalin mutein of SEQ ID NO: 13 (designed binder)
chain: QDSTSDLIPAPPLSKVPLQQNFQDNQFQGKWYVVGRAGNLGLREDKDPPKMWATIYELKEDKSYDVTNVRFARKKCMYSIGTFVPGSQPGEFTLGQIKSEPGSTANLVRVVSTNYNQHAMVFFKEVYQNREIFFITLYGRTKELTSELKENFIRFSKSLGLPENHIVFPVPIDQCIDGSAWSHPQFEK
notes: hNGAL (Lcn2) mutein; also called optimized GPC3 specific lipocalin mutein
By Kd is commonly meant the free concentration of one partner at which half of the binding sites on the other are occupied at equilibrium, for simple one-to-one binding. Read a high Kd as weaker binding. One may read the koff as the first-order rate constant of dissociation. The low end stands for a long-lived complex, the high end for a short-lived complex. The term kon denotes a measure of how fast the partners come together. A word on the EC50: it is the concentration giving half of the maximal effect. For the molecule B1, the Kd in experiment [1] was determined as 0.09 nM; in experiment [2] it was 0.07 nM. Moreover, the koff in experiment [1] is 0.00024 s⁻¹; in experiment [2] it was 0.00018 s⁻¹. Further, the kon in experiment [1] is 2.7e+06 M⁻¹ s⁻¹; in experiment [2], 2.6e+06 M⁻¹ s⁻¹. The EC50 amounted to 2.9 nM in experiment [3], 0.6 nM in experiment [4] and 0.9 nM in experiment [5].

B2: lipocalin mutein of SEQ ID NO: 14 (designed binder)
chain: QDSTSDLIPAPPLSKVPLQQNFQDNQFQGKWYVVGRAGNVGLREDKDPPKMWATIYELKEDKSYDVTNVRFAGKKVKYTIGTFVPGSQPGEFTLGQIKSEPGNTATLVRVVSTNYNQHAMVFFKEVYQNREIFFITLYGRTKELTSELKENFIRFSKSLGLPENHIVFPVPIDQAIDGSAWSHPQFEK
notes: as for B1
For the molecule B2, the Kd stood at 1.59 nM in experiment [1] and 0.819 nM in experiment [2]. Further, the koff in experiment [1] was found to be 0.0031 s⁻¹; in experiment [2] it was 0.002 s⁻¹. For the same molecule, the kon in experiment [1] came out at 2e+06 M⁻¹ s⁻¹; in experiment [2] it was 2.4e+06 M⁻¹ s⁻¹. The EC50 was 6.7 nM in experiment [3], 15.4 nM in experiment [4] and 9.5 nM in experiment [5].

B3: lipocalin mutein of SEQ ID NO: 16 (designed binder)
chain: QDSTSDLIPAPPLSKVPLQQNFQDNQFQGKWYVVGRAGNVGLREDKDPPKMRATIYELKEDKSYDVTGVRFDSKKVTYSIGTFVPGSQPGEFTLGQIKSEPGNTANLVRVVSTNYNQHAMVFFKEVYQNREIFFIILYGRTKELTSELKENFIRFSKSLGLPENHIVFPVPIDQAIDGSAWSHPQFEK
notes: as for B1
Take B3: the Kd in experiment [1] was 0.311 nM; in experiment [2], 0.171 nM. The figures for the koff in experiment [1] and in experiment [2] were 0.00019 s⁻¹ and 0.00011 s⁻¹, respectively. Besides, the kon in experiment [1] came out at 610000 M⁻¹ s⁻¹; in experiment [2] it was 670000 M⁻¹ s⁻¹. Also, the figures for the EC50 in experiment [3], in experiment [4] and in experiment [5] were 4.4 nM, 2.5 nM and 2.2 nM, respectively.

B4: lipocalin mutein of SEQ ID NO: 15 (designed binder)
chain: QDSTSDLIPAPPLSKVPLQQNFQDNQFQGKWYVVGRAGNVGLREDKDPPKMRATIYELKEDKSYDVTGVRFGEKKIKYSIGTFVPGSQPGEFTLGQIKSQPGDTANLVRVVSTNYNQHAMVFFKEVYQNREIFFIILYGRTKELTSELKENFIRFSKSLGLPENHIVFPVPIDQAIDGSAWSHPQFEK
notes: as for B1
With B4, the Kd amounted to 0.072 nM in experiment [1] and 0.035 nM in experiment [2]. Also, the koff in experiment [1] is 9.1e-05 s⁻¹; in experiment [2], 4.9e-05 s⁻¹. In addition, the kon came out at 1.3e+06 M⁻¹ s⁻¹ in experiment [1] and 1.4e+06 M⁻¹ s⁻¹ in experiment [2]. Further, the figures for the 50% effective concentration (EC50) in experiment [3], in experiment [4] and in experiment [5] were 4.8 nM, 1.6 nM and 1.6 nM, respectively.

B5: negative control lipocalin (SEQ ID NO: 2) (other)
chain: QDSTSDLIPAPPLSKVPLQQNFQDNQFHGKWYVVGLAGNAILREDKDPQKMYATIYELKEDKSYNVTSVLFRKKKCDYWIRTFVPGSQPGEFTLGNIKSYPGLTSYLVRVVSTNYNQHAMVFFKKVSQNREYFKITLYGRTKELTSELKENFIRFSKSLGLPENHIVFPVPIDQCIDG
B5: in experiment [6], the binding result is reported as “no binding (tested: 1000 nM)”.
